# Assay results from patent US20210403583A1 (ELIXIRON IMMUNOTHERAPEUTICS HONG KONG, published 2021).
# T1: recombinant human IL-10Ra fusion protein (R&D Systems) (human, UniProt Q13651 22-235)
# T1 sequence (looked up): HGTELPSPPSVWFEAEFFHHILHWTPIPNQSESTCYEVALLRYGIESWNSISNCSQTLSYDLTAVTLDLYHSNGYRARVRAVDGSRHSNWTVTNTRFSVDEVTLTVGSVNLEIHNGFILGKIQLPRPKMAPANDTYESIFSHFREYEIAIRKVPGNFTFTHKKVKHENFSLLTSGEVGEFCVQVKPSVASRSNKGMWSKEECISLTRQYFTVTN
# T2: cynomolgus CSF1R expressed on 293F cells (cynomolgus monkey, UniProt P07333 20-972 (human entry))
# T2 construct: also called cynoCSF1R
# T2 chain: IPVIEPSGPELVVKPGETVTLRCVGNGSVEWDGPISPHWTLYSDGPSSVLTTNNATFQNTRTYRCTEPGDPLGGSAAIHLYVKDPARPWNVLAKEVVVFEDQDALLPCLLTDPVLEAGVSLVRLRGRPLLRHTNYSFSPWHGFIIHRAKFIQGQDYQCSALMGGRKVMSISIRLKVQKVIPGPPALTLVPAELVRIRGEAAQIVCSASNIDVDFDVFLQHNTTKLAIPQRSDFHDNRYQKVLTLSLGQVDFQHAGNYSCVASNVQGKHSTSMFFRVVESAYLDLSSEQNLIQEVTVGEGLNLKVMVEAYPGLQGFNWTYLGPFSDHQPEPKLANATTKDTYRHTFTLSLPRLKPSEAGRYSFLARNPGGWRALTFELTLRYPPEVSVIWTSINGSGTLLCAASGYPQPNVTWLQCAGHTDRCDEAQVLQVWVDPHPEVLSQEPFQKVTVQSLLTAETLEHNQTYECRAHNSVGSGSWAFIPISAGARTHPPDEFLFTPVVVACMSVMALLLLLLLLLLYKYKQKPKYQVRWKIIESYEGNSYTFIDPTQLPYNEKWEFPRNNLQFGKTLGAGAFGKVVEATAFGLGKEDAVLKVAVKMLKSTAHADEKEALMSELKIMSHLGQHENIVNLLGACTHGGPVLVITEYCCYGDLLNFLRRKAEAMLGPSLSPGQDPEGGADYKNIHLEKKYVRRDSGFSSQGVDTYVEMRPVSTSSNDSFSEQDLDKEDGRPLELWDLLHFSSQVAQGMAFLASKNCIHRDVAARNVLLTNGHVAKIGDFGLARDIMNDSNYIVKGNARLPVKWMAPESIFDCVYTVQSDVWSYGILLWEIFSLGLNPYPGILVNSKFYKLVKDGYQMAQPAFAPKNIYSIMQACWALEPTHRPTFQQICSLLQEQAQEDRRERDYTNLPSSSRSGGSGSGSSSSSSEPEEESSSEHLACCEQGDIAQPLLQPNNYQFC
# How the values were obtained:
# [1] = molecular target: human CSF1R expressed on cells (293F/huCSF1R stable cells; AML5 cells; human monocytes and macrophages) (human, UniProt P07333 20-972); assay: cell-based or functional assay
# [2] = molecular target: T3, recombinant human CSF1R-Fc fusion protein (human, UniProt P07333 20-512); assay: ELISA, coated human CSF1R-Fc
# T3 construct: probably the same protein; also called CSF1R-Fc (dimer); not shown: Fc part
# Experimental: Materials and methods: Recombinant human CSF1R-Fc, or mouse CSF1R-Fc (Sino Biological) were immobilized on 96 well microtiter plate at a concentration of 1 μg/mL in Coating Solution (SeraCare) overnight at 4° C. The wells were washed with wash solution (0.05% Tween20 in imidazole-buffered saline) and blocked with 1% BSA. Serial dilutions of the anti-CSF1R/IL-10 fusion proteins were added to wells. After incubation at 3TC for 1 h, the wells were washed with wash solution. To detect chimeric Ab/IL10 fusions, peroxidase-conjugated goat anti-human kappa light chain antibody (Bethyl) was applied to each well at 3TC for 1 h incubation. To detect AB98 or AB98/1110 fusions, peroxidase-conjugated Goat anti-mouse IgG Fab antibody (Jackson immunoresearch) was applied to each well at 3TC for 1 h incubation. After washing, the wells were developed with TMB substrate for 5-10 min at RT and then stopped with 1 N HCl. Thereafter absorbance was measured at 450 nm and 650 nm.
# [3] = molecular target: T1, recombinant human IL-10Ra fusion …; assay: ELISA, coated human IL-10Ra fusion protein
# Experimental: Materials and methods: Recombinant human IL-10Ra fusion protein (R&D Systems) were immobilized on 96 well microtiter plate at a concentration of 1 μg/ml in Coating Solution (SeraCare) overnight at 4° C. The wells were washed with wash solution (0.05% Tween20 in imidazole-buffered saline) and blocked with 1% BSA. Serial dilutions of Ab/IL-10 fusion proteins were added to wells. After incubation at 37° C. for lhr, the wells were washed with wash solution. Peroxidase-conjugated goat anti-human kappa light chain antibody (Bethyl) was applied to each well at 37° C. for 1 hr incubation. After washing, the wells were developed with TMB substrate for 5-10 min at RT and then stopped with 1 N HCl. Thereafter absorbance was measured at 450 nm and 650 nm. The EC50 value was calculated through GraphPad Prism7.
# [4] = molecular target: T3, recombinant human CSF1R-Fc fusion …; assay: competition ELISA, coated human CSF1R-Fc, competitor biotinylated human CSF1-His 2.5 ug/mL
# Experimental: Materials and methods: Recombinant human CSF1R-Fc or mouse CSF1R-Fc (Sino Biological) fusion protein was immobilized on 96 well microtiter plate at a concentration of 1 μg/mL in Coating Solution (SeraCare) overnight at 4° C. The wells were washed with wash solution and blocked with 1% BSA at RT. Serial dilutions of Ab/IL-10 fusion proteins were added to wells. Then 2.5 ug/mL biotinylated human CSF1-His (Biolegend) or mouse CSF1-His (Sino Biological) was added and incubated for 1 h at 37° C. After washing, Streptavidin-HRP (Jackson ImmunoResearch) was applied to wells at RT for 1 h incubation. After washing, the wells were developed with TMB substrate for 5-10 min at RT and the stopped with 1 N HCl. Thereafter absorbance was measured at 450 nm and 650 nm. The IC₅₀ values were calculated through GraphPad Prism7.
# [5] = molecular target: T2, cynomolgus CSF1R expressed on 293F cells; assay: flow cytometry titration on 293F cells overexpressing cynomolgus CSF1R, anti-human IgG-Alexa Fluor 647
# Source text: Materials and methods: The gene segments encoding full-length human CSF1R or cynomolgus CSF1R were obtained using Thermo gene synthesis service and cloned in a mammalian expression vector pCDNA3.4. […] After washing with FACS buffer (2%FBS in PBS), the cells were stained with anti-human IgG-Alexa Fluor 647 and analyzed by Attune N×T Flow Cytometer (Thermo Scientific).
# T3 sequence (P07333 20-512 limits assumed): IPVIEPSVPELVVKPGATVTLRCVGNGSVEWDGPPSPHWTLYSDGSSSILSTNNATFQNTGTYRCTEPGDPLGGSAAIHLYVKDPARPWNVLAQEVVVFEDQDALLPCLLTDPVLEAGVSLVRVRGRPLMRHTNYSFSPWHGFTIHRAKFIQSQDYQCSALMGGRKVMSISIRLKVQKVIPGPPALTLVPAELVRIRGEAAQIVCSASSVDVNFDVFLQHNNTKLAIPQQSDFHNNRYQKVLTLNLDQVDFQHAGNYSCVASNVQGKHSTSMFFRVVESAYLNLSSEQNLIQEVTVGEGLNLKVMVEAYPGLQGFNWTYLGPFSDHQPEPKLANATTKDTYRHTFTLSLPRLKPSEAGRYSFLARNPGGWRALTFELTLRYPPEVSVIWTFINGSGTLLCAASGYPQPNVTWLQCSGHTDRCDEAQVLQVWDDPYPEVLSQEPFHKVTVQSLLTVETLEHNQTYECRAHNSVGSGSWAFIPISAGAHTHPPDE
"IC50 (M), inhibition of AML5 cell proliferation (CSF1-dependent) [1]",EC50 [2],EC50 [3],IC50 [4],binding result [5],Binder
4.92e-09 M,0.479 nM,2.76 nM,1.4 nM,binds,"chimeric anti-CSF1R/IL10 fusion protein 6D4/IL10 (antibody, human IgG1, kappa, Antibody-cytokine fusion: human IL10 fused by a linker to the C-terminus of the heavy chain) heavy: not shown light: DIQMNQSPSSLSASLGDTITITCHASQNINVWLSWYQQKPGNIPKLLIYKASNLHTGVPSRFSGSGSGTGFTLTISSLQPEDIATYYCQQGQSYPYTFGGGTKLEIKRTVAAPSVFIFPPSDEQLKSGTASVVCLLNNFYPREAKVQWKVDNALQSGNSQESVTEQDSKDSTYSLSSTLTLSKADYEKHKVYACEVTHQGLSSPVTKSFNRGEC"
,0.393 nM,6.08 nM,,,"chimeric anti-CSF1R/IL10 fusion protein 6D4/(IL10)2 (antibody, human IgG1, kappa, Antibody-cytokine fusion: two human IL10 in tandem fused by linkers to the C-terminus of the heavy chain) heavy: not shown light: DIQMNQSPSSLSASLGDTITITCHASQNINVWLSWYQQKPGNIPKLLIYKASNLHTGVPSRFSGSGSGTGFTLTISSLQPEDIATYYCQQGQSYPYTFGGGTKLEIKRTVAAPSVFIFPPSDEQLKSGTASVVCLLNNFYPREAKVQWKVDNALQSGNSQESVTEQDSKDSTYSLSSTLTLSKADYEKHKVYACEVTHQGLSSPVTKSFNRGEC"
